According to patent US8293494 (UNIVERSITATSKLINIKUM FREIBURG, dated 2012):

Tests used:
TAP-LSD1 = TAP-LSD1 (UniProt O60341 1-852); experiment: TAP-LSD1 complexes immobilised on IgG sepharose, Western blot
Text: Protein complexes were immobilised on IgG, sepharose, released from IgG sepharose by TEV protease cleavage of the TAP tag, followed by immunoprecipitation of Flag-tagged AR with α-Flag antibody. […] Ten percent of the extract used for immunoprecipitation was loaded as input.
LSD1 associated complexes were released from IgG sepharose by TEV protease cleavage of the TAP-tag followed by immunoprecipitation of Flag-tagged AR with α-Flag antibody. […] We applied the TAP-based co-purification strategy because the moderate expression levels of the endogenous proteins would only have allowed a limited number of purification steps.

GFP-JHDM2A = biological target: T1, GFP-JHDM2A (UniProt Q9Y4C1 1-1321); experiment: co-immunoprecipitation with α-Flag from transfected 293 cells, Western blot with α-GFP
T1 construct: not shown: GFP fusion partner
T1 sequence (looked up): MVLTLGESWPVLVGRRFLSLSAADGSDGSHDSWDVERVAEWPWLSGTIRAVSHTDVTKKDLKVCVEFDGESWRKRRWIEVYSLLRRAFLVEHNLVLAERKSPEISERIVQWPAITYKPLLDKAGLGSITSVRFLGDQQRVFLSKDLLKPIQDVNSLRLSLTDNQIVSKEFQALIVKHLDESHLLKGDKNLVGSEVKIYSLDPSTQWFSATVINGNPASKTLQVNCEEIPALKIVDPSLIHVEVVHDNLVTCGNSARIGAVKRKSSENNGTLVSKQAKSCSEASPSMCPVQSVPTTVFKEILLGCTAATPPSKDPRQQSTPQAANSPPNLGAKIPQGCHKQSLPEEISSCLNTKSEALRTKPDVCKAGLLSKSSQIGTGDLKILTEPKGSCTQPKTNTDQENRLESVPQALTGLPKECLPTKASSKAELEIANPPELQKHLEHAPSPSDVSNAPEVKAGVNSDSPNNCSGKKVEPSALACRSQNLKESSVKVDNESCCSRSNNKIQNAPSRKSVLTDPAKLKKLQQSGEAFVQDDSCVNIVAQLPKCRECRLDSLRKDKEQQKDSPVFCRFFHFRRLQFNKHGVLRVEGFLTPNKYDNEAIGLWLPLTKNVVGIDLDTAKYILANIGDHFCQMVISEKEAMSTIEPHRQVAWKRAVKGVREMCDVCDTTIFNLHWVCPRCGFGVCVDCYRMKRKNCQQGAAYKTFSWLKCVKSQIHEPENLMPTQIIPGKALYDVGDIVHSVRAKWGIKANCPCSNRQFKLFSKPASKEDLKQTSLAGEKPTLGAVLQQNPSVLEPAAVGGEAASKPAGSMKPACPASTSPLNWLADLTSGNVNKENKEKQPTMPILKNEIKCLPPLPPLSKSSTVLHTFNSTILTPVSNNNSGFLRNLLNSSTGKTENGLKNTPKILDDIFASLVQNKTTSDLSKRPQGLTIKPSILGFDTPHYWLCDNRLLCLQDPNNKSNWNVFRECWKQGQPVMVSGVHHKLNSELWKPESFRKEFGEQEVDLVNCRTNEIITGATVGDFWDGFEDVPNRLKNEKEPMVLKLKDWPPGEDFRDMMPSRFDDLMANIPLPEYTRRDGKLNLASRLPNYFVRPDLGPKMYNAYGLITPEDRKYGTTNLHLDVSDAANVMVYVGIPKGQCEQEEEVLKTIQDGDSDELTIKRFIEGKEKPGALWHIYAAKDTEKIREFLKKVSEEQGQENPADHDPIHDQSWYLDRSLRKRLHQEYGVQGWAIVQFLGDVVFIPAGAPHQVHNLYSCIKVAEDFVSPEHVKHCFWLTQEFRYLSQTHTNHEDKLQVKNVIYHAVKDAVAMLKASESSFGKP
Text: Extracts were immunoprecipitated with α-Flag antibody. Twenty percent of the extract used for immunoprecipitation was loaded as input. Western blots were decorated with α-GFP (Santa Cruz; 1:500) or α-Flag antibody (1:2500).

[1] = biological target: LSD1 (endogenous, LNCaP cells) (human, UniProt O60341 1-852); experiment: Re-ChIP in LNCaP cells
Procedure: LNCaP cells were incubated with or without the AR agonist R1881 (a, b), and transfected with stealth RNAi (b). ChIP or Re-ChIP was performed with the indicated antibodies. The precipitated chromatin was amplified by PCR using primers flanking the promoter region (ARE I+II) and the enhancer region (ARE III) of the PSA gene, the promoter region (ARE) of the KLK2 gene, or the promoters of the unrelated GAPDH and U6 genes. […] Western blots were decorated with the indicated antibodies against α-mono-, α-di-, or α-trimethyl H3K9.
ChIP experiments were performed as described[3]. LNCaP cells were treated for 45 min (FIG. 2a) or 210 min in the presence or absence of 10^-8 M R1881 as indicated. LNCaP cells were transfected three days before harvesting for ChIP with or without stealth RNAi (Invitrogen) following the manufacturer's instructions. […] For PCR, 1-5 µl out of 50 d DNA extract was used. For Re-ChIP assays, immunoprecipitations were sequentially washed with TSE I, TSE II, buffer III, and TE[20]. Complexes were eluted by incubation with 10 mM DTT at 37° C. for 30 minutes, diluted 50 times with dilution buffer[20] followed by a second immunoprecipitation with the indicated antibodies.

B1: Flag-AR (receptor)
chain: MEVQLGLGRVYPRPPSKTYRGAFQNLFQSVREVIQNPGPRHPEAASAAPPGASLLLLQQQQQQQQQQQQQQQQQQQQQQQETSPRQQQQQQGEDGSPQAHRRGPTGYLVLDEEQQPSQPQSALECHPERGCVPEPGAAVAASKGLPQQLPAPPDEDDSAAPSTLSLLGPTFPGLSSCSADLKDILSEASTMQLLQQQQQEAVSEGSSSGRAREASGAPTSSKDNYLGGTSTISDNAKELCKAVSVSMGLGVEALEHLSPGEQLRGDCMYAPLLGVPPAVRPTPCAPLAECKGSLLDDSAGKSTEDTAEYSPFKGGYTKGLEGESLGCSGSAAAGSSGTLELPSTLSLYKSGALDEAAAYQSRDYYNFPLALAGPPPPPPPPHPHARIKLENPLDYGSAWAAAAAQCRYGDLASLHGAGAAGPGSGSPSAAASSSWHTLFTAEEGQLYGPCGGGGGGGGGGGGGGGGGGGGGGGEAGAVAPYGYTRPPQGLAGQESDFTAPDVWYPGGMVSRVPYPSPTCVKSEMGPWMDSYSGPYGDMRLETARDHVLPIDYYFPPQKTCLICGDEASGCHYGALTCGSCKVFFKRAAEGKQKYLCASRNDCTIDKFRRKNCPSCRLRKCYEAGMTLGARKLKKLGNLKLQEEGEASSTTSPTEETTQKLTVSHIEGYECQPIFLNVLEAIEPGVVCAGHDNNQPDSFAALLSSLNELGERQLVHVVKWAKALPGFRNLHVDDQMAVIQYSWMGLMVFAMGWRSFTNVNSRMLYFAPDLVFNEYRMHKSRMYSQCVRMRHLSQEFGWLQITPQEFLCMKALLLFSIIPVDGLKNQKFFDELRMNYIKELDRIIACKRKNPTSCSRRFYQLTKLLDSVQPIARELHQFTFDLLIKSHMVSVDFPEMMAEIISVQVPKILSGKVKPIYFHTQ
notes: Plasmid described previously; Assays in the presence of R1881; also called Flag-tagged AR; not shown: Flag tag
binding result (TAP-LSD1): binds

B2: V5-JMJD2C (enzyme)
chain: MEVAEVESPLNPSCKIMTFRPSMEEFREFNKYLAYMESKGAHRAGLAKVIPPKEWKPRQCYDDIDNLLIPAPIQQMVTGQSGLFTQYNIQKKAMTVKEFRQLANSGKYCTPRYLDYEDLERKYWKNLTFVAPIYGADINGSIYDEGVDEWNIARLNTVLDVVEEECGISIEGVNTPYLYFGMWKTTFAWHTEDMDLYSINYLHFGEPKSWYAIPPEHGKRLERLAQGFFPSSSQGCDAFLRHKMTLISPSVLKKYGIPFDKITQEAGEFMITFPYGYHAGFNHGFNCAESTNFATVRWIDYGKVAKLCTCRKDMVKISMDIFVRKFQPDRYQLWKQGKDIYTIDHTKPTPASTPEVKAWLQRRRKVRKASRSFQCARSTSKRPKADEEEEVSDEVDGAEVPNPDSVTDDLKVSEKSEAAVKLRNTEASSEEESSASRMQVEQNLSDHIKLSGNSCLSTSVTEDIKTEDDKAYAYRSVPSISSEADDSIPLSSGYEKPEKSDPSELSWPKSPESCSSVAESNGVLTEGEESDVESHGNGLEPGEIPAVPSGERNSFKVPSIAEGENKTSKSWRHPLSRPPARSPMTLVKQQAPSDEELPEVLSIEEEVEETESWAKPLIHLWQTKSPNFAAEQEYNATVARMKPHCAICTLLMPYHKPDSSNEENDARWETKLDEVVTSEGKTKPLIPEMCFIYSEENIEYSPPNAFLEEDGTSLLISCAKCCVRVHASCYGIPSHEICDGWLCARCKRNAWTAECCLCNLRGGALKQTKNNKWAHVMCAVAVPEVRFTNVPERTQIDVGRIPLQRLKLKCIFCRHRVKRVSGACIQCSYGRCPASFHVTCAHAAGVLMEPDDWPYVVNITCFRHKVNPNVKSKACEKVISVGQTVITKHRNTRYYSCRVMAVTSQTFYEVMFDDGSFSRDTFPEDIVSRDCLKLGPPAEGEVVQVKWPDGKLYGAKYFGSNIAHMYQVEFEDGSQIAMKREDIYTLDEELPKRVKARFSTASDMRFEDTFYGADIIQGERKRQRVLSSRFKNEYVADPVYRTFLKSSFQKKCQKRQ
notes: also called CMX-DEST51-JMJD2C; not shown: V5 tag
binding result (TAP-LSD1): binds

B3: Flag-JMJD2C (enzyme, human, UniProt Q9H3R0 1-1056, looked up)
chain: MEVAEVESPLNPSCKIMTFRPSMEEFREFNKYLAYMESKGAHRAGLAKVIPPKEWKPRQCYDDIDNLLIPAPIQQMVTGQSGLFTQYNIQKKAMTVKEFRQLANSGKYCTPRYLDYEDLERKYWKNLTFVAPIYGADINGSIYDEGVDEWNIARLNTVLDVVEEECGISIEGVNTPYLYFGMWKTTFAWHTEDMDLYSINYLHFGEPKSWYAIPPEHGKRLERLAQGFFPSSSQGCDAFLRHKMTLISPSVLKKYGIPFDKITQEAGEFMITFPYGYHAGFNHGFNCAESTNFATVRWIDYGKVAKLCTCRKDMVKISMDIFVRKFQPDRYQLWKQGKDIYTIDHTKPTPASTPEVKAWLQRRRKVRKASRSFQCARSTSKRPKADEEEEVSDEVDGAEVPNPDSVTDDLKVSEKSEAAVKLRNTEASSEEESSASRMQVEQNLSDHIKLSGNSCLSTSVTEDIKTEDDKAYAYRSVPSISSEADDSIPLSSGYEKPEKSDPSELSWPKSPESCSSVAESNGVLTEGEESDVESHGNGLEPGEIPAVPSGERNSFKVPSIAEGENKTSKSWRHPLSRPPARSPMTLVKQQAPSDEELPEVLSIEEEVEETESWAKPLIHLWQTKSPNFAAEQEYNATVARMKPHCAICTLLMPYHKPDSSNEENDARWETKLDEVVTSEGKTKPLIPEMCFIYSEENIEYSPPNAFLEEDGTSLLISCAKCCVRVHASCYGIPSHEICDGWLCARCKRNAWTAECCLCNLRGGALKQTKNNKWAHVMCAVAVPEVRFTNVPERTQIDVGRIPLQRLKLKCIFCRHRVKRVSGACIQCSYGRCPASFHVTCAHAAGVLMEPDDWPYVVNITCFRHKVNPNVKSKACEKVISVGQTVITKHRNTRYYSCRVMAVTSQTFYEVMFDDGSFSRDTFPEDIVSRDCLKLGPPAEGEVVQVKWPDGKLYGAKYFGSNIAHMYQVEFEDGSQIAMKREDIYTLDEELPKRVKARFSTASDMRFEDTFYGADIIQGERKRQRVLSSRFKNEYVADPVYRTFLKSSFQKKCQKRQ
notes: also called CMX-Flag-JMJD2C; not shown: Flag tag
binding result (GFP-JHDM2A): no binding

B4: JMJD2C (endogenous, LNCaP cells) (enzyme)
chain: MEVAEVESPLNPSCKIMTFRPSMEEFREFNKYLAYMESKGAHRAGLAKVIPPKEWKPRQCYDDIDNLLIPAPIQQMVTGQSGLFTQYNIQKKAMTVKEFRQLANSGKYCTPRYLDYEDLERKYWKNLTFVAPIYGADINGSIYDEGVDEWNIARLNTVLDVVEEECGISIEGVNTPYLYFGMWKTTFAWHTEDMDLYSINYLHFGEPKSWYAIPPEHGKRLERLAQGFFPSSSQGCDAFLRHKMTLISPSVLKKYGIPFDKITQEAGEFMITFPYGYHAGFNHGFNCAESTNFATVRWIDYGKVAKLCTCRKDMVKISMDIFVRKFQPDRYQLWKQGKDIYTIDHTKPTPASTPEVKAWLQRRRKVRKASRSFQCARSTSKRPKADEEEEVSDEVDGAEVPNPDSVTDDLKVSEKSEAAVKLRNTEASSEEESSASRMQVEQNLSDHIKLSGNSCLSTSVTEDIKTEDDKAYAYRSVPSISSEADDSIPLSSGYEKPEKSDPSELSWPKSPESCSSVAESNGVLTEGEESDVESHGNGLEPGEIPAVPSGERNSFKVPSIAEGENKTSKSWRHPLSRPPARSPMTLVKQQAPSDEELPEVLSIEEEVEETESWAKPLIHLWQTKSPNFAAEQEYNATVARMKPHCAICTLLMPYHKPDSSNEENDARWETKLDEVVTSEGKTKPLIPEMCFIYSEENIEYSPPNAFLEEDGTSLLISCAKCCVRVHASCYGIPSHEICDGWLCARCKRNAWTAECCLCNLRGGALKQTKNNKWAHVMCAVAVPEVRFTNVPERTQIDVGRIPLQRLKLKCIFCRHRVKRVSGACIQCSYGRCPASFHVTCAHAAGVLMEPDDWPYVVNITCFRHKVNPNVKSKACEKVISVGQTVITKHRNTRYYSCRVMAVTSQTFYEVMFDDGSFSRDTFPEDIVSRDCLKLGPPAEGEVVQVKWPDGKLYGAKYFGSNIAHMYQVEFEDGSQIAMKREDIYTLDEELPKRVKARFSTASDMRFEDTFYGADIIQGERKRQRVLSSRFKNEYVADPVYRTFLKSSFQKKCQKRQ
notes: Endogenous protein, on chromatin (ChIP / Re-ChIP)
binding result [1]: binds
